The values below come from patent publication US20230226096A1 (Orna Therapeutics, Inc., priority 2020, published 2023).

To fix the notation:
B1: Grapevine associated narnavirus-1 (nucleic acid, listed as Narnavirus sp.)
DNA: GCCCGGGGGGTGCAGTCCTGTGAAAGGGTCTGCACCATACTATATATGTATATGATTACATCCCAAAAGGCGACTTCGTTCAGGTTTTAAATCTGACGTAGGTCCAGTAAATAAGCATGTCAAAACATGTAAGTTTATCCTGTAATCTACTCTCATAAGATGAGATAAGATGATATTGCAGTTCCCATGTAAATAAATCCATTATGAATTCATTCATATAAGGTAGAAGTGGTAACTATGGTTGAAACATTAATATAAAACGGTCATTTTGCATGAACGTCATTAAGGAACTGGCATACCAATGTCTATTTAGTGACTATGATATTTAGAGTATCCCTTATATTAATTAACAATTATTCCTTTTAGCATATCATCCGACAACAAATTTTAAAAGAAGAAATATTACTCATTAAAA
B2: Avian infectious bronchitis virus (nucleic acid)
DNA: ACTTAAGATAGATATTAATATATATCTATTACACTAGCCTTGCGCTAGATTTTTAACTTAACAAAACGGACTTAAATACCTACAGCTGGTCCTCATAGGTGTTCCATTGCAGTGCACTTTAGTGCCCTGGATGGCACCTGGCCACCTGTCAGGTTTTTGTTATTAAAATCTTATTGTTGCTGGTATCACTGCTTGTTTTGCCGTGTCTCACTTTATACATCTGTTGCTTGGGCTACCTAGTGTCCAGCGTCCTACGGGCGTCGTGGCTGGTTCGAGTGCGAGGAACCTCTGGTTCATCTAGCGGTAGGCGGGTGTGTGGAAGTAGCACTTCAGACGTACCGGTTCTGTTGTGTGAAATACGGGGTCACCTCCCCCCACATACCTCTAAGGGCTTTTGAGCCTAGCGTTGGGCTACGTTCTCGCATAAGGTCGGCTATACGACGTTTGTAGGGGGTAGTGCCAAACAACCCCTGAGGTGACAGGTTCTGGTGGTGTTTAGTGAGCAGACATACAATAGACAGTGACAAC
B3: Goat torovirus (nucleic acid, listed as Torovirus sp.)
DNA: GTACTTACAAGCGGGTTAAACCGCCCTCCGGAACGGTTACAACCCCCTCCCGAACGTGCGCTTGACGTGACTGGTTCTCAGTCTGGCTTTCTGAGAAATACTCCAGGGTTGTATCCCACCATCTTGACCTCTGGTCATTTTGGTAACACCATAACCAAACAAACTCTACACACCTAACCCACCTCCAGCTTGCTGCAGGCCTTTTGGACTAAACGGGTTTAGGTGTTTTGTGACCAACTCGTCTACCCACCTCCAGTTTTACTGCAGGCCTTTTTGGACTAAACGGCTTTAGACTTTTGTGGTTAGTTTTTAACTACCCACTGTTTAGCCGCCAACCTGATTTTCATTGTTGTAAAATTTTGTGTTTATACACTATTTTCATACGGTTGGCAGTTTGTTTGGTTGTTTGCACAGTTTTTGTTGATACCAATTTTTACTGTGCTTTTAGTGTATTCTGCTAAGGCTGTATTTTACATACTTAGTTTGGTTGAAGCAATTTTTACAACATTTATATTGTTTTTGATTTCTAAGGTAAAGAGTCTTAGGAAACACCATAGACGCCATTCTTGTGGTGTCTAGTTCCAACTAATCTGGCAAACAAGTACCAAGTCATTGACTCACTTTGGAGTGAGACTTACGAGTACCAATTTGCCTATTTCGGACATCCATATAAAG
B4: EV22 (nucleic acid)
DNA: CCTTATAACCCGACTTGCTGAGCTTCTATAGGAAAAAACCCTTTCCCAGCCTTGGGGTGGCTGGTCAATAAAAACCCCCATAGTAACCAACACCTAAGACAATTTGATCAACCCTATGCCTGGTCCCCACTATTCGAAGGCAACTTGCAATAAGAAGAGTGGAACAAGGATGCTTAAAGCATAGTGTAAATGATCTTTTCTAACCTGTATTATGTACAGGGTGGCAGATGGCGTGCCATAAATCTATTAGTGGGATACCACGCTTGTGGACCTTATGCCCACACAGCCATCCTCTAGTAAGTTTGTAAAATGTCTGGTGAGATGTGGGAACTTATTGGAAACAACAATTTGCTTAATAGCATCCTAGTGCCAGCGGAACAACATCTGGTAACAGATGCCTCTGGGGCCAAAAGCCAAGGTTTGACAGACCCATTAGGATTGGTTTCAAAACCTGAATTGTTGTGGAAGATATTCAGTACCTATCAATCTGGTAGTGGTGCAAACACTAGTTGTAAGGCCCACGAAGGATGCCCAGAAGGTACCCGCAGGTAACAAGAGACACTGTGGATCTGATCTGGGGCCAACTACCTCTATCAGGTGAGTTAGTTAAAAAACGTCTAGTGGGCCAAACCCAGGGGGGATCCCTGGTTTCCTTTTATTGTTAATATTGACATT
B5: Feline infectious peritonitis virus (nucleic acid)
DNA: ACTTTTAAAGTAAAGTGAGTGTAGCGTGGCTATAACTCTTCTTTTACTTTAACTAGCCTTGTGCTAGATTTGTCTTCGGACACCAACTCGAACTAAACGAAATATTTGTCTCTCTATGAAACCATAGAAGACAAGCGTTGATTATTTCACCAGTTTGGCAATCACTCCTAGGAACGGGGTTGAGAGAACGGCGCACCAGGGTTCCGTCCCTGTTTGGTAAGTCGTCTAGTATTAGCTGCGGCGGTTCCGCCCGTCGTAGTTGGGTAGACCGGGTTCCGTCCTGTGATCTCCCTCGCCGGCCGCCAGGAGA
B6: Human rhinovirus 1 (nucleic acid, listed as Rhinovirus sp.)
DNA: TTAAAACTGGGTGTGGGTTGTTCCCACCCACACCACCCAATGGGTGTTGTACTCTGTTATTCCGGTAACTTTGTACGCCAGTTTTTCCCTCCCCTCCCCATCCTTTTACGTAACTTAGAAGTTTTAAATACAAGACCAATAGTAGGCAACTCTCCAGGTTGTCTAAGGTCAAGCACTTCTGTTTCCCCGGTTGATGTTGATATGCTCCAACAGGGCAAAAACAACAGATACCGTTATCCGCAAAGTGCCTACACAGAGCTTAGTAGGATTCTGAAAGATCTTTGGTTGGTCGTTCAGCTGCATACCCAGCAGTAGACCTTGCAGATGAGGCTGGACATTCCCCACTGGTAACAGTGGTCCAGCCTGCGTGGCTGCCTGCGCACCTCTCATGAGGTGTGAAGCCAAAGATCGGACAGGGTGTGAAGAGCCGCGTGTGCTCACTTTGAGTCCTCCGGCCCCTGAATGCGGCTAACCTTAAACCTGCAGCCATGGCTCATAAGCCAATGAGTTTATGGTCGTAACGAGTAATTGCGGGATGGGACCGACTACTTTGGGTGTCCGTGTTTCACTTTTTCCTTTATTAATTGCTTATGGTGACAATATATATATTGATATATATTGGCATC
B7: Farmington virus (nucleic acid)
DNA: ACGACGCATAAGCAGAGAAACATAAGAGACTATGTTCATAGTCACCCTGTATTCATTATTGACTTTTATGACCTATTATTAGACCCTTCACGGGTAAATCCTTCTCCTTGCAGTTCTCGCCAAGTACCTCCAAAGTCAGAACG

The data set concerns HEK293 cells. It is filed as cell-based, human. The following applies: luminescence from secreted Gluc in supernatant 24 hours after transfection of HEK293 cells; circular RNA encoding Gluc with the named IRES (UTR truncated to 675 nt).
In turn, B1 displayed an Expression of 1.30E+05.
In the case of B2 it was 2.84E+05.
B3 returned an Expression of 1.19E+05.
Molecule B4 showed an Expression of 1.95E+07.
Molecule B5 displayed an Expression of 1.35E+05.
The molecule B6 gave an Expression of 7.40E+07.
Then B7, with 1.22E+05.
